# From patent US20030166571A1 (SYNVAX, published 2003)
# Numbered stars: 1 amine (or outer) side, 2 acyl side, 3 side chain; on linkers, the order of the positions; unused ones are H or OH. Square brackets hold non-standard residues; d marks the D form. Ends that are not written are not given here. * marks the point of attachment. Tyr(BN,3-Cl) = tyrosine with benzyl (BN) and 3-Cl, O=C([C@H](Cc1ccc(OCc2ccccc2)c(Cl)c1)N[*:1])[*:2]; Phe(4-NO2) = N[C@@H](Cc1ccc([N+](=O)[O-])cc1)C(=O)O; Phe(4-SO3H) = N[C@@H](Cc1ccc(S(=O)(=O)O)cc1)C(=O)O; Trp(5-CN) = N#Cc1ccc2[nH]cc(C[C@H](N)C(=O)O)c2c1; Phe(4-COOH) = N[C@@H](Cc1ccc(C(=O)O)cc1)C(=O)O; Phe(4-CN) = N#Cc1ccc(C[C@H](N)C(=O)O)cc1; Phe(4-F) = N[C@@H](Cc1ccc(F)cc1)C(=O)O; Phe(4-Me) = Cc1ccc(C[C@H](N)C(=O)O)cc1; hPhe = N[C@@H](CCc1ccccc1)C(=O)O; Phg = N[C@H](C(=O)O)c1ccccc1; Ac6c = NC1(C(=O)O)CCCCC1; Pentanoyl = CCCCC(=O)*; Ahx = NCCCCCC(=O)O
# B1: VII-27-B (peptide)
# peptide: Ac-R[Phe(4-SO3H)]YRWR-NH2
# notes: also called Ac-Arg-Phe(SO3H)-Tyr-Arg-Trp-Arg-NH2
# B2: VII-19-B (peptide)
# peptide: Ac-R[Phe(4-COOH)]YRWR-NH2
# SMILES: CC(=O)N[C@@H](CCCNC(=N)N)C(=O)N[C@@H](Cc1ccc(C(=O)O)cc1)C(=O)N[C@@H](Cc1ccc(O)cc1)C(=O)N[C@@H](CCCNC(=N)N)C(=O)N[C@@H](Cc1c[nH]c2ccccc12)C(=O)N[C@@H](CCCNC(=N)N)C(N)=O
# notes: also called Ac-Arg-Phe(4-COOH)-Tyr-Arg-Trp-Arg-NH2
# B3: VII-1-A (peptide)
# peptide: Nipacotyl-RYYRWR-NH2
# notes: also called Nipacotyl-Arg-Tyr-Tyr-Arg-Trp-Arg-NH2
# B4: VII-51-A (peptide)
# peptide: Ac-RYYR[Trp(5-CN)]R-NH2
# SMILES: CC(=O)N[C@@H](CCCNC(=N)N)C(=O)N[C@@H](Cc1ccc(O)cc1)C(=O)N[C@@H](Cc1ccc(O)cc1)C(=O)N[C@@H](CCCNC(=N)N)C(=O)N[C@@H](Cc1c[nH]c2ccc(C#N)cc12)C(=O)N[C@@H](CCCNC(=N)N)C(N)=O
# notes: also called Ac-Arg-Tyr-Tyr-Arg-Trp(5-CN)-Arg-NH2
# B5: VII-15-B (peptide)
# peptide: Ac-R[Phe(4-Me)]YRWR-NH2
# SMILES: CC(=O)N[C@@H](CCCNC(=N)N)C(=O)N[C@@H](Cc1ccc(C)cc1)C(=O)N[C@@H](Cc1ccc(O)cc1)C(=O)N[C@@H](CCCNC(=N)N)C(=O)N[C@@H](Cc1c[nH]c2ccccc12)C(=O)N[C@@H](CCCNC(=N)N)C(N)=O
# notes: also called Ac-Arg-Phe(4-Me)-Tyr-Arg-Trp-Arg-NH2
# B6: VII-3-A (peptide)
# peptide: {β‑aminoisobutryl}-RYYRWR-NH2
# notes: also called β-aminoisobutryl-Arg-Tyr-Tyr-Arg-Trp-Arg-NH2
# B7: VII-43-C (peptide)
# peptide: Ac-R[Phe(4-CN)]YRWR-NH2
# SMILES: CC(=O)N[C@@H](CCCNC(=N)N)C(=O)N[C@@H](Cc1ccc(C#N)cc1)C(=O)N[C@@H](Cc1ccc(O)cc1)C(=O)N[C@@H](CCCNC(=N)N)C(=O)N[C@@H](Cc1c[nH]c2ccccc12)C(=O)N[C@@H](CCCNC(=N)N)C(N)=O
# notes: also called Ac-Arg-Phe(4-CN)-Tyr-Arg-Trp-Arg-NH2
# B8: VII-35-C (peptide)
# peptide: Ac-R[Tyr(4-Me)]YRWR-NH2
# notes: also called Ac-Arg-Tyr(4-Me)-Tyr-Arg-Trp-Arg-NH2
# B9: VII-37-B (peptide)
# peptide: Ac-R[Tyr(4-Me)][Tyr(4-Me)]RWR-NH2
# notes: also called Ac-Arg-Tyr(4-Me)-Tyr(4-Me)-Arg-Trp-Arg-NH2
# B10: VII-11-B (peptide)
# peptide: Ac-R[Phg][Phg]RWR-NH2
# SMILES: CC(=O)N[C@@H](CCCNC(=N)N)C(=O)N[C@H](C(=O)N[C@H](C(=O)N[C@@H](CCCNC(=N)N)C(=O)N[C@@H](Cc1c[nH]c2ccccc12)C(=O)N[C@@H](CCCNC(=N)N)C(N)=O)c1ccccc1)c1ccccc1
# notes: also called Ac-Arg-Phg-Phg-Arg-Trp-Arg-NH2
# B11: VII-13-B (peptide)
# peptide: Ac-RY[Phg]RWR-NH2
# SMILES: CC(=O)N[C@@H](CCCNC(=N)N)C(=O)N[C@@H](Cc1ccc(O)cc1)C(=O)N[C@H](C(=O)N[C@@H](CCCNC(=N)N)C(=O)N[C@@H](Cc1c[nH]c2ccccc12)C(=O)N[C@@H](CCCNC(=N)N)C(N)=O)c1ccccc1
# notes: also called Ac-Arg-Tyr-Phg-Arg-Trp-Arg-NH2
# B12: VII-61-B (peptide)
# peptide: Ac-RY[Phe(4-F)]RWR-NH2
# SMILES: CC(=O)N[C@@H](CCCNC(=N)N)C(=O)N[C@@H](Cc1ccc(O)cc1)C(=O)N[C@@H](Cc1ccc(F)cc1)C(=O)N[C@@H](CCCNC(=N)N)C(=O)N[C@@H](Cc1c[nH]c2ccccc12)C(=O)N[C@@H](CCCNC(=N)N)C(N)=O
# notes: also called Ac-Arg-Tyr-Phe(4-F)-Arg-Trp-Arg-NH2
# B13: VII-23-B (peptide)
# peptide: Ac-R[Phe(4-NO2)]YRWR-NH2
# SMILES: CC(=O)N[C@@H](CCCNC(=N)N)C(=O)N[C@@H](Cc1ccc([N+](=O)[O-])cc1)C(=O)N[C@@H](Cc1ccc(O)cc1)C(=O)N[C@@H](CCCNC(=N)N)C(=O)N[C@@H](Cc1c[nH]c2ccccc12)C(=O)N[C@@H](CCCNC(=N)N)C(N)=O
# notes: also called Ac-Arg-Phe(NO2)-Tyr-Arg-Trp-Arg-NH2
# B14: VII-2-A (peptide)
# peptide: {β‑Nva}-RYYRWR-NH2
# notes: also called β-Nva-Arg-Tyr-Tyr-Arg-Trp-Arg-NH2
# B15: VII-53-B (peptide)
# peptide: Ac-[Ahx]YYRWR-NH2
# SMILES: CC(=O)NCCCCCC(=O)N[C@@H](Cc1ccc(O)cc1)C(=O)N[C@@H](Cc1ccc(O)cc1)C(=O)N[C@@H](CCCNC(=N)N)C(=O)N[C@@H](Cc1c[nH]c2ccccc12)C(=O)N[C@@H](CCCNC(=N)N)C(N)=O
# notes: also called Ac-ε-aminocaproyl-Tyr-Tyr-Arg-Trp-Arg-NH2
# B16: VII-33-B (peptide)
# peptide: Ac-R[Phe(4-F)][Phe(4-F)]RWR-NH2
# SMILES: CC(=O)N[C@@H](CCCNC(=N)N)C(=O)N[C@@H](Cc1ccc(F)cc1)C(=O)N[C@@H](Cc1ccc(F)cc1)C(=O)N[C@@H](CCCNC(=N)N)C(=O)N[C@@H](Cc1c[nH]c2ccccc12)C(=O)N[C@@H](CCCNC(=N)N)C(N)=O
# notes: also called VII-33-C; Ac-Arg-Phe(4-F)-Phe(4-F)-Arg-Trp-Arg-NH2
# B17: VII-57-C (peptide)
# peptide: Ac-RYYRW[Ahx]-NH2
# SMILES: CC(=O)N[C@@H](CCCNC(=N)N)C(=O)N[C@@H](Cc1ccc(O)cc1)C(=O)N[C@@H](Cc1ccc(O)cc1)C(=O)N[C@@H](CCCNC(=N)N)C(=O)N[C@@H](Cc1c[nH]c2ccccc12)C(=O)NCCCCCC(N)=O
# notes: also called Ac-Arg-Tyr-Tyr-Arg-Trp-ε-aminocaproyl-NH2
# B18: VII-49-B (peptide)
# peptide: Ac-R[hPhe][hPhe]RWR-NH2
# SMILES: CC(=O)N[C@@H](CCCNC(=N)N)C(=O)N[C@@H](CCc1ccccc1)C(=O)N[C@@H](CCc1ccccc1)C(=O)N[C@@H](CCCNC(=N)N)C(=O)N[C@@H](Cc1c[nH]c2ccccc12)C(=O)N[C@@H](CCCNC(=N)N)C(N)=O
# notes: also called Ac-Arg-hPhe-hPhe-Arg-Trp-Arg-NH2
# B19: VII-7-B (peptide)
# peptide: Pentanoyl-RYYRWR-NH2
# SMILES: CCCCC(=O)N[C@@H](CCCNC(=N)N)C(=O)N[C@@H](Cc1ccc(O)cc1)C(=O)N[C@@H](Cc1ccc(O)cc1)C(=O)N[C@@H](CCCNC(=N)N)C(=O)N[C@@H](Cc1c[nH]c2ccccc12)C(=O)N[C@@H](CCCNC(=N)N)C(N)=O
# notes: also called Pentanoyl-Arg-Tyr-Tyr-Arg-Trp-Arg-NH2; Pentanoyl-RYYRWR-NH2
# B20: VII-31-B (peptide)
# peptide: Ac-R[Phe(4-F)]YRWR-NH2
# SMILES: CC(=O)N[C@@H](CCCNC(=N)N)C(=O)N[C@@H](Cc1ccc(F)cc1)C(=O)N[C@@H](Cc1ccc(O)cc1)C(=O)N[C@@H](CCCNC(=N)N)C(=O)N[C@@H](Cc1c[nH]c2ccccc12)C(=O)N[C@@H](CCCNC(=N)N)C(N)=O
# notes: also called Ac-Arg-Phe(4-F)-Tyr-Arg-Trp-Arg-NH2
# B21: VII-4-B (peptide)
# peptide: [Ac6c]RYYRWR-NH2
# modifications: N-terminus assumed
# SMILES: N=C(N)NCCC[C@H](NC(=O)[C@H](Cc1c[nH]c2ccccc12)NC(=O)[C@H](CCCNC(=N)N)NC(=O)[C@H](Cc1ccc(O)cc1)NC(=O)[C@H](Cc1ccc(O)cc1)NC(=O)[C@H](CCCNC(=N)N)NC(=O)C1(N)CCCCC1)C(N)=O
# notes: also called 1-aminocyclohexanoyl-Arg-Tyr-Tyr-Arg-Trp-Arg-NH2
# B22: VII-39-D (peptide)
# peptide: Ac-R[Tyr(BN,3-Cl)]YRWR-NH2
# notes: also called Ac-Arg-Tyr(BN*, 3-Cl)-Tyr-Arg-Trp-Arg-NH2
# B23: VII-17-B (peptide)
# peptide: Ac-R[Phe(4-Me)][Phe(4-Me)]RWR-NH2
# SMILES: CC(=O)N[C@@H](CCCNC(=N)N)C(=O)N[C@@H](Cc1ccc(C)cc1)C(=O)N[C@@H](Cc1ccc(C)cc1)C(=O)N[C@@H](CCCNC(=N)N)C(=O)N[C@@H](Cc1c[nH]c2ccccc12)C(=O)N[C@@H](CCCNC(=N)N)C(N)=O
# notes: also called Ac-Arg-Phe(4-Me)-Phe(4-Me)-Arg-Trp-Arg-NH2
# B24: VII-55-A (peptide)
# peptide: Ac-RYY[Ahx]WR-NH2
# SMILES: CC(=O)N[C@@H](CCCNC(=N)N)C(=O)N[C@@H](Cc1ccc(O)cc1)C(=O)N[C@@H](Cc1ccc(O)cc1)C(=O)NCCCCCC(=O)N[C@@H](Cc1c[nH]c2ccccc12)C(=O)N[C@@H](CCCNC(=N)N)C(N)=O
# notes: also called Ac-Arg-Tyr-Tyr-ε-aminocaproyl-Trp-Arg-NH2
# Experiments:
# [1] = molecular target: T1, human ORL-1 receptor (opioid receptor like 1) (human, UniProt P41146 1-370); experiment: [3H]nociceptin displacement, membranes of CHO cells transfected with human ORL-1; Ki=IC50/(1+L/Kd)
# T1 construct: whole, on cells; Assays were run on membranes of CHO cells transfected with human ORL-1; also called opiate receptor like 1; nociceptin receptor
# Description: Receptor binding studies were conducted on human ORL1 (opiate receptor like 1) transfected into Chinese hamster ovary (CHO) cells using each of the hexapeptide analog compounds of Table 3. All the compounds were evaluated for binding affinities. […] The data shown in Table 5 represents the average±SEM of at least two experiments conducted in triplicate.
# Cells are removed from the plates by scraping with a rubber policeman, and then homogenized in Tris buffer using a Polytron homogenizer. Following this homogenization step, the cellular mixture is centrifuged once and washed by an additional centrifugation at 40,000×g for 15 min. The pellet formed during the centrifugation is re-suspended in 50 mM Tris, pH 7.5. […] Samples of the suspension are then filtered over glass fiber filters using a Wallac cell harvester.
# For the data in Table 5, binding was conducted as described above. IC₅₀ values and Hill coefficients were determined using the curve-fitting program Prism. K₁ values were calculated using the equation K₁=IC₅₀/(1+[L]/Kd). […] The data in Table 5 represent the average±SEM of at least two experiments conducted in triplicate.
# [2] = molecular target: T1, human ORL-1 receptor (opioid receptor …); experiment: cell-based or functional assay
# T1 sequence (P41146 whole entry): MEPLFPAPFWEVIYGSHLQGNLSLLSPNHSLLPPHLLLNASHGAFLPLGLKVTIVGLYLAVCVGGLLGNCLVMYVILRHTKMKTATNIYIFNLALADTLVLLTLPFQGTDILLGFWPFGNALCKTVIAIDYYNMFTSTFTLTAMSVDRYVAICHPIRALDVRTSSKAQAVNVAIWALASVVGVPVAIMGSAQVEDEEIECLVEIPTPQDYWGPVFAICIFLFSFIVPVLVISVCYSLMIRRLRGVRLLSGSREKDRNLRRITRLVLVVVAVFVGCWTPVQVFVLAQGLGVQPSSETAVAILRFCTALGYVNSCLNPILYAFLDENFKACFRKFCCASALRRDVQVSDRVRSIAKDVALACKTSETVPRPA
Binder,Ki [1] [nM],% Stimulation of [35S]GTPγS binding [2] [%],EC50 (nM) of stimulation of [35S]GTPγS binding [2] [nM]
B1,155,,
B2,40.6,45.5,854
B3,30.3,< 20,
B4,0.3,49.1,156
B5,0.48,59.8,18.8
B6,1.18,29.1,68
B7,0.15,49.7,29.5
B8,0.43,52.1,51.1
B9,6.29,< 20,
B10,30.4,,
B11,27,,
B12,0.05,70.4,2
B13,0.44,56.6,15.7
B14,11.8,< 20,
B15,29.1,39.5,167
B16,1.51,< 20,
B17,41.9,37.4,358
B18,5.49,< 20,
B19,0.16,< 20,
B20,0.52,54.4,35.7
B21,9.25,< 20,
B22,0.03,89,0.3
B23,10.1,< 20,
B24,39,26.6,1230
